Substrate in data set [1]: Cc1cc(=O)oc2c(F)c(OP(=O)(O)O)c(F)cc12
Put plainly: steady-state phosphatase assay. Format: biochemical, Kluyveromyces lactis. The conditions noted are these: 50 mM MES pH 5.5, 30 °C, 10 μM enzyme.

Substrate in data set [2]: Cc1cc(=O)oc2c(F)c(OP(=O)(O)O)c(F)cc12
Put plainly: steady-state phosphatase assay. The conditions noted are these: 50 mM MES pH 5.5, 30 °C, 10 μM enzyme. Format: biochemical, Homo sapiens.

B1: KlRtr1 FL (Kluyveromyces lactis NRRL Y-1140) (protein)
chain: MATIEEIKEVVLKPYTNHRQLTIREVETISINLIDLLITKDVKDARTMKYISRFLTKQDYADLVQERNLVKRCGYPLCSKSQARVRDPFADVQMTNFLRQNNPYAYLTEYCTKAHFRCSQFYQFQLSDEALFARVGVHLDDYEPPSEIQLLEEVLARESDVKQMIRGMTDLKLADDDSREEMERDISDMLADIKIVEINEPNIIGDLGRDR
Turning to B1, in data set [1] (EDTA-treated enzyme), the Michaelis-Menten constant (Km) worked out at 587 ± 70 µM and the turnover number (kcat) was determined as 0.001 ± 3e-05 s⁻¹.

B2: KlRtr1 FL (Kluyveromyces lactis NRRL Y-1140; E197Q) (protein)
chain: MATIEEIKEVVLKPYTNHRQLTIREVETISINLIDLLITKDVKDARTMKYISRFLTKQDYADLVQERNLVKRCGYPLCSKSQARVRDPFADVQMTNFLRQNNPYAYLTEYCTKAHFRCSQFYQFQLSDEALFARVGVHLDDYEPPSEIQLLEEVLARESDVKQMIRGMTDLKLADDDSREEMERDISDMLADIKIVQINEPNIIGDLGRDR
On to B2, for which, in data set [1] (EDTA-treated enzyme), the Km was 529 ± 45 µM and the kcat was 0.0016 ± 4e-05 s⁻¹.

B3: KlRtr1 NTD (Kluyveromyces lactis NRRL Y-1140) (protein)
chain: MATIEEIKEVVLKPYTNHRQLTIREVETISINLIDLLITKDVKDARTMKYISRFLTKQDYADLVQERNLVKRCGYPLCSKSQARVRDPFADVQMTNFLRQNNPYAYLTEYCTKAHFRCSQFYQFQLSDEALFARVGVHLDDYEPPSEIQLLEEVLA
With B3, in data set [1], the Km is 694 ± 74 µM and the kcat came out at 0.0015 ± 5e-05 s⁻¹.

B4: hRPAP2 NTD (Homo sapiens) (protein)
chain: MADFAGPSSAGRKAGAPRCSRKAAGTKQTSTLKQEDASKRKAELEAAVRKKIEFERKALHIVEQLLEENITEEFLMECGRFITPAHYSDVVDERSIVKLCGYPLCQKKLGIVPKQKYKISTKTNKVYDITERKSFCSNFCYQASKFFEAQIPKTPVWVREEERHPDFQLLKEEQSGHSGEEVQLCSKAI
Regarding B4, in data set [2], the Km is 1668 ± 205 µM and the kcat was 0.0005 ± 3e-05 s⁻¹.

Broadly, the Km is the concentration of substrate that gives half-maximal velocity. In general, kcat refers to the number of substrate molecules converted per active site and unit of time at saturation.
